From patent publication US20220025003A1, “REAGENTS AND METHODS FOR CONTROLLING PROTEIN FUNCTION AND INTERACTION” (University of Washington, priority 2018, published 2022)
Ends that are not written are not given here.

Columns and labels:
[1] = target: NS3aH1-VPR, cells treated with grazoprevir (hepatitis C virus); experiment: cell-based or functional assay
[2] = target: NS3a (active), Avi-His6-NS3a catalytically active; experiment: fluorescence polarization; FB50; conditions: chains peptide; modification not given
[3] = target: NS3a (active), Avi-His6-NS3a catalytically active; experiment: fluorescence polarization; FB50; conditions: chains peptide; modification not given; remark: listed apart in the source
[4] = target: NS3aH1-VPR, cells treated with danoprevir (hepatitis C virus); experiment: cell-based or functional assay

B1: NLS-MCP-GNCR1 (from NLS-MCP-GNCR1-P2a-BFP) (designed binder)
chain: MPKKKRKVGSMASNFTQFVLVDNGGTGDVTVAPSNFANGIAEWISSNSRSQAYKVTCSVRQSSAQNRKYTIKVEVPKGAWRSYLNMELTIPIFATNSDCELIVKAMQGLLKDGNPIPSAIAANSGIYGSGGSGDIEKLCKKAEEEAKEAQEKADELRQRHPDSQAAEDAEDLANLAVAAVLTACLLAQEHPNADIAKLCIKAASEAAEAASKAAELAQRHPDSQAARDAIKLASQAARAVILAIMLAAENPNADIAKLCIKAASEAAEAASKAAELAQRHPDSQAARDAIKLASQAAEAVERAIWLAAENPNADIAKKCIKAASEAAEEASKAAEEAQRHPDSQKARDEIKEASQKAEEVKERCKSEQKLISEEDLGSGATNFSLLKQAGDVEENPG
In the case of B1, the EC50 of the grazoprevir titration, CXCR4 immunofluorescence [1] is reported as 0.16 nM.

B2: FAM-ANR (peptide)
chain: GSGSGELDELVYLLDGPGYDPIHSD
modifications: not fully specified (N-terminus)
With B2 the EC50 [2] was 40 nM and the EC50 [3] was 30 nM.

B3: NLS-PCP-DNCR2 (from NLS-PCP-DNCR2-P2a-BFP) (designed binder)
chain: MPKKKRKVGSMSKTIVLSVGEATRTLTEIQSTADRQIFEEKVGPLVGRLRLTASLRQNGAKTAYRVNLKLDQADVVDSGLPKVRYTQVWSHDVTIVANSTEASRKSLYDLTKSLVATSQVEDLVVNLVPLGRGSGSGSSDEEEARELIERAKEAAERAQEAAERTGDPRVRELARELKRLAQEAAEEVKRDPSSSDVNEALKLIVEAIEAAVDALEAAERTGDPEVRELARELVRLAVEAAEEVQRNPSSSDVNEALHSIVYAIEAAIFALEAAERTGDPEVRELARELVRLAVEAAEEVQRNPSSRNVEHALMRIVLAIYLAEENLREAEESGDPEKREKARERVREAVERAEEVQRDPSGWLNHEQKLISEEDLGSGATNFSLLKQAGDVEENPG
Work on B3 yielded an EC50 of the danoprevir titration, GFP fluorescence [4] of 0.79 nM.
